This note sets out measurements from paper PMC9643425, “Structural model for ligand binding and channel opening of an insect gustatory receptor” (The Journal of Biological Chemistry, 2022).

Test [1] has as its target T1, BmGr9 (Bombyx mori, UniProt B3GTD7, I440C).
T1 construct: gene Gr9; full-length
T1 sequence (B3GTD7 1-449 I440C): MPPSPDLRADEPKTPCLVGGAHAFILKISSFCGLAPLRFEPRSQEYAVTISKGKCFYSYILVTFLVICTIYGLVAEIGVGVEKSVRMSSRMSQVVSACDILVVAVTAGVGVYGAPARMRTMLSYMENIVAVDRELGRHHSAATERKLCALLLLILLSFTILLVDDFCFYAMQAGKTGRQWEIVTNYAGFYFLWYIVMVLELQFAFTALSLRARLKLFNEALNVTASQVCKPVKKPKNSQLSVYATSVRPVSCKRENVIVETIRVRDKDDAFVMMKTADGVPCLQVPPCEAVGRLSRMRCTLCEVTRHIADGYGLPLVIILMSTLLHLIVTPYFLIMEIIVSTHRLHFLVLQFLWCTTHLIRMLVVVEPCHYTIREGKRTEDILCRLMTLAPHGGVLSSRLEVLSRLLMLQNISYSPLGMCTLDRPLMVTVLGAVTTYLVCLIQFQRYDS
Briefly: two-electrode voltage clamp in Xenopus oocytes, […] MTSET, cysteine modification. The class given is cell-based.

Test [2] concerns the target BmGr9 silkworm gustatory receptor (Bombyx mori (silkworm)). Briefly: cross-linking; HEK293T cells expressing BmGr9 incubated with various concentrations of disuccinimidyl suberate (DSS) at 37 °C for 15 min; lysed in 0.1% RIPA buffer; SDS-PAGE with 5 M urea; Western blot with anti-BmGr9 antibody.
Test [3] concerns the target meGFP-BmGr9 (Bombyx mori (silkworm)). Briefly: single-molecule imaging, counting of photobleaching steps (TIRF microscopy); meGFP-BmGr9 on the plasma membrane of Xenopus oocytes; bleaching steps at single spots (n = 569) fitted with binomial distributions of tetramer, pentamer and hexamer models.

Values joined by “and” are separate entries in the source; they are usually repeats but may differ in a detail not shown here. Equal values may be shown once.

Turning to `C[N+](C)(C)CCSS(C)(=O)=O` [MTSET, 2-(trimethylammonium)ethyl methanethiosulfonate, bromide], in test [1], the “two-electrode voltage clamp in Xenopus oocytes, 2.5 mM MTSET, cysteine modificat” value is on record as “whereas the response of I440C was markedly inhibited by MTSET application”. As to BmGr9 silkworm gustatory receptor, in test [2], the stoichiometry N was 2 and 4. On to meGFP-BmGr9 (receptor), for which, in test [3], the stoichiometry N was found to be 4.
